Assay results taken from patent publication US20260049134A1 (UNIVERSITY OF FLORIDA RESEARCH FOUNDATION, published 2026).

Tests used:
PTP4A3 = biological target: T1, PTP4A3; assay: ELISA on coated protein
T1 construct: also called His-PTP4A3 (R&D Systems)

[1] = biological target: T2, GARS-His (Sino Biological) (human, UniProt P41250 37-739, limits assumed); assay: ELISA on coated protein
T2 construct: Bought; also called GARS1; glycyl-tRNA synthetase; not shown: His tag of the bought protein
T2 sequence: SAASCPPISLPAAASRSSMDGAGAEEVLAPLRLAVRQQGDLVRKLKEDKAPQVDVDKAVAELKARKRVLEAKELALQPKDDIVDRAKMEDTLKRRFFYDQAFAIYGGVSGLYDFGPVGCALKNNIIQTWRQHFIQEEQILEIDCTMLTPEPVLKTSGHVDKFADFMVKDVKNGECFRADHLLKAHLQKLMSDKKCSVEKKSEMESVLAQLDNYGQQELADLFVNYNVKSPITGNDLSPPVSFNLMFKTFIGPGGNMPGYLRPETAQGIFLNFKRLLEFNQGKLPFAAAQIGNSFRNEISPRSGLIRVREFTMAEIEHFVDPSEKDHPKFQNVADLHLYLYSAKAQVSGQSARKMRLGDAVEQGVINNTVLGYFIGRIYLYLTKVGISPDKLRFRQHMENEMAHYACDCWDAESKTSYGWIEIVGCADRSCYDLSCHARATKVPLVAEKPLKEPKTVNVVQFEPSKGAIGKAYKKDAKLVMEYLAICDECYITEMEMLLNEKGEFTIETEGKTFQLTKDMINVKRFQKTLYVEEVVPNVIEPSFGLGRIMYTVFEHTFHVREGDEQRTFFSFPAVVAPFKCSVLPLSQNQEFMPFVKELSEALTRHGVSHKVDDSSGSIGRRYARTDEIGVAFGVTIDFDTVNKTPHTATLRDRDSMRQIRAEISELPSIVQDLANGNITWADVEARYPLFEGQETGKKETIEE

SLAMF7 = biological target: T3, SLAMF7; assay: ELISA on coated protein
T3 construct: also called SLAMF7-StrepTag; not shown: StrepTag and any linker
T3 chain: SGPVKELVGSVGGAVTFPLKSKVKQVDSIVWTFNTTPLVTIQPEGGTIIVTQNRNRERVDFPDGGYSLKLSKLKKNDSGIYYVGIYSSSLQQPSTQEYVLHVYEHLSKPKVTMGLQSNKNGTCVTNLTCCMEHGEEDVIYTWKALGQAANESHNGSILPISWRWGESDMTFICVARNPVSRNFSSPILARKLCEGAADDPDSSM

SELL = biological target: T4, SELL; assay: ELISA on coated protein
T4 construct: also called SELL-Fc-His (R&D Systems); L-Selectin
T4 chain: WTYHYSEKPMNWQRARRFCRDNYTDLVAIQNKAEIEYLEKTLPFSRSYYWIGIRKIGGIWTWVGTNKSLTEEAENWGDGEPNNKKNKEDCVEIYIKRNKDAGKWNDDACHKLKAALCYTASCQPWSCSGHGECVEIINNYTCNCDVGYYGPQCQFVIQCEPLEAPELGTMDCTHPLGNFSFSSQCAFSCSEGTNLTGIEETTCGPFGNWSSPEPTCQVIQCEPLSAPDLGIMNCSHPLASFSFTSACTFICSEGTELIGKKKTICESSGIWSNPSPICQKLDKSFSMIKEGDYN

HHLA2 = biological target: T5, HHLA2; assay: ELISA on coated protein
T5 construct: also called HHLA2-Fc (R&D Systems); B7-H7; not shown: Fc part and any linker
T5 chain: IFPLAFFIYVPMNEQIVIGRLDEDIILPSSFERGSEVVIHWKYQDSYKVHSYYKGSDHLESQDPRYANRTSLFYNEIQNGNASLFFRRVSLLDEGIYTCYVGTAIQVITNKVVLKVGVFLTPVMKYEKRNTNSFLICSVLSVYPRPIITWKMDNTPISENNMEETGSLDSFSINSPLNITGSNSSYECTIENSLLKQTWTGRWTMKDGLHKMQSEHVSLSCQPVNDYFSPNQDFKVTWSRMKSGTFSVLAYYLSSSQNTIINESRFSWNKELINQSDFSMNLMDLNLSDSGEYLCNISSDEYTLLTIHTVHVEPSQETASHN

IL13RA1 = biological target: T6, IL13RA1; assay: ELISA on coated protein
T6 construct: also called IL13RA1-Fc-His (R&D Systems)
T6 chain: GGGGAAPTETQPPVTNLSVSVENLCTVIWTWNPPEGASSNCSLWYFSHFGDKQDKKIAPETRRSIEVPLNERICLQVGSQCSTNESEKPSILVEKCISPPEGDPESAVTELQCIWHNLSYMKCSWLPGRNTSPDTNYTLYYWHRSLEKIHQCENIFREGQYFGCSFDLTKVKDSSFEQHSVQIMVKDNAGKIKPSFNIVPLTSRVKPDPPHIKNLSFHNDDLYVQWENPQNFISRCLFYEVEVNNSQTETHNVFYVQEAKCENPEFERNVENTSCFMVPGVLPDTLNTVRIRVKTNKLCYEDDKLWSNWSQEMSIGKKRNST

ICAM1-Fc (R&D Systems) = biological target: T7, ICAM1-Fc (R&D Systems) (human, UniProt P05362 28-480); assay: ELISA on coated protein
T7 construct: Bought; also called ICAM-1/CD54; not shown: Fc of the bought fusion protein
T7 sequence (P05362 28-480): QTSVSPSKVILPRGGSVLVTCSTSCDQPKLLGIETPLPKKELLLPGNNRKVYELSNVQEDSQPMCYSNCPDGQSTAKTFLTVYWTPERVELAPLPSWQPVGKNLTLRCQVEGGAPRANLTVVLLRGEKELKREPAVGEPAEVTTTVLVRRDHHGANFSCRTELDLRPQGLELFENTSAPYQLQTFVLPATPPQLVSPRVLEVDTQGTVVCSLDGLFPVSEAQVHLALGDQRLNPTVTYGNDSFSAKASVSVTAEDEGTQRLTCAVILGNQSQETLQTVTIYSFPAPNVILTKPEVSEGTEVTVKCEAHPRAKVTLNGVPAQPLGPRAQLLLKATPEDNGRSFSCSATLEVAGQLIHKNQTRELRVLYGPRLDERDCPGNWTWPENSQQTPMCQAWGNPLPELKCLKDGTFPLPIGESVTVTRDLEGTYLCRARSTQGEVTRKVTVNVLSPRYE

[2] = biological target: T8, GARS, endogenous in H929 multiple myeloma cells (human, UniProt P41250 37-739, limits assumed); assay: flow cytometry, H929 + ICAM1 siRNA; None 455; surface target GARS putative
T8 construct: Native protein pulled down from H929 lysates; also called Glycyl-tRNA synthetase; GlyRS
T8 sequence: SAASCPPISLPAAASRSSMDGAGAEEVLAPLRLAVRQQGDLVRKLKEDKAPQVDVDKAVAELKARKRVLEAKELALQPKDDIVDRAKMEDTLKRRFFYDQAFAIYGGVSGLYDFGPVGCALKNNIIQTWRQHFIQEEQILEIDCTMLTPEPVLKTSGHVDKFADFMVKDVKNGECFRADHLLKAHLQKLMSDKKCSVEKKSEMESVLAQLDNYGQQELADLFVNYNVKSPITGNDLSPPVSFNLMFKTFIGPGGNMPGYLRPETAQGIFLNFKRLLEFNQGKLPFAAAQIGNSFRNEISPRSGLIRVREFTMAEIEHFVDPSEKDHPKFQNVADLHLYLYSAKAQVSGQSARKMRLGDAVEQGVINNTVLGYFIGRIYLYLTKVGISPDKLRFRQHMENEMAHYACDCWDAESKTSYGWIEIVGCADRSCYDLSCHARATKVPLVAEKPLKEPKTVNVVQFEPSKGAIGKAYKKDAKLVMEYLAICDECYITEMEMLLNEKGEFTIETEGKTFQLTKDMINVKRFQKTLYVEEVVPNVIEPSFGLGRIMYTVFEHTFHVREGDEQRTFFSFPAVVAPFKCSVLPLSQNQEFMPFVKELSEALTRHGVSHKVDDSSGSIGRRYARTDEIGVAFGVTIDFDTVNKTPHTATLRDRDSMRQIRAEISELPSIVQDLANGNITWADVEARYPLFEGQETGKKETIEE

[3] = biological target: T8, GARS, endogenous in H929 multiple …; assay: flow cytometry, H929 + vehicle; None 2.74; surface target GARS putative

T1 sequence (chain, as listed by the source limits assumed): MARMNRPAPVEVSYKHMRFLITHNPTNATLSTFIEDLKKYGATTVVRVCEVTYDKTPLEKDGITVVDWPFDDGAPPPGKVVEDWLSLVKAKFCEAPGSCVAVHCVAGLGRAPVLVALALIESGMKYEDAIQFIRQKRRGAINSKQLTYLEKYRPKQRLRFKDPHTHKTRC

B1: TH9-0022 (antibody, human IgG1, kappa, L234A L235A, V domains shown)
VH: QSLEESGGRLVTPGTPLTLTCTVSGFSLSSYAMNWVRQAPGKGLEWIGIINSYGSTYYASWAKGRFTISKTSTTVDLKITSPTTEDTATYFCARVTYDSYGYGYAPYGMDLWGPGTLVTVSS
VL: LVMTQTPSSTSNAVGGTVTIKCQASQSIGNVLAWYQQKPGQPPKLLIYAASTLASGVPSRVGGSRSGTEYTLTISGVQREDAATYYCLGSDSDSDIAFGGGTELEILR
notes: also called TH9-022; negative control IgG1
B1: no binding (tested: 150 ng IgG1 per well) (PTP4A3); no binding (tested: 150 ng IgG1 per well) [1]; no binding (tested: 150 ng IgG1 per well) (SLAMF7). B1: no binding (tested: 150 ng IgG1 per well) (SELL); no binding (tested: 150 ng IgG1 per well) (HHLA2); no binding (tested: 150 ng IgG1 per well) (IL13RA1). B1: no binding (tested: 150 ng IgG1 per well) (ICAM1-Fc (R&D Systems)).

B2: HW-8 chimeric rabbit-human IgG1 LA/LA/PG (antibody, V domains shown)
VH: QSLEESGGRLVTPGTPLTLTCTVSGFSLSSYAMSWVRQAPGKGLEWIGAISTGGSTTYASWAKGRFTISKTSSTTVDLKMTSLTTEDTATYFCVRHFRLWGPGTLVTISS
VL: QVLTQTPSSVSAAVGGTVTIKCQASQSIGSALAWFQQKPGQRPKLLIYRASNLASGVPSRFKGSGSGTEFALTISGVQREDAATYYCLGGAAAVWAFGAGTNVEIKR
notes: Fc-silenced (L234A/L235A/P329G) IgG1, kappa; Alexa Fluor 647-labeled in single-step flow cytometry; Cluster C-45
B2: no binding (tested: 150 ng IgG1 per well) (PTP4A3); no binding (tested: 150 ng IgG1 per well) (SLAMF7); no binding (tested: 150 ng IgG1 per well) (SELL). B2: no binding (tested: 150 ng IgG1 per well) (HHLA2); no binding (tested: 150 ng IgG1 per well) (IL13RA1); no binding (tested: 150 ng IgG1 per well) (ICAM1-Fc (R&D Systems)). The “mAb binding (MFI)” value [2] was 11400 and the “Cells stained (%)” value [3] was 84.7%.

B3: HW-1 chimeric rabbit-human IgG1 LA/LA/PG (antibody, V domains shown)
VH: QSLEESGGGLFKPTDTLTLTCTASGFSLGSSYAISWVRQAPGKELEWIGTIDSGRAYYARWAKSRSTITRNTNENTVTLKMTSLTAADTATYFCARDLIPTYSQDIWGPGTLVTISS
VL: SFVLTQPASVQVNLGQTVSLTCTADTLSRRYASWYQQKPGQAPVLLIYRDTSRPSGVPDRFSGSSSGNTATLTISGAQAGDEADYYCATSDGSGNSYQYVFGGGTQLTVTS
notes: Fc-silenced (L234A/L235A/P329G) IgG1, lambda; Alexa Fluor 647-labeled in single-step flow cytometry; Prototype of cluster C-1
B3: no binding (tested: 150 ng IgG1 per well) (PTP4A3); no binding (tested: 150 ng IgG1 per well) [1]; no binding (tested: 150 ng IgG1 per well) (SLAMF7). B3: no binding (tested: 150 ng IgG1 per well) (SELL); no binding (tested: 150 ng IgG1 per well) (HHLA2); no binding (tested: 150 ng IgG1 per well) (IL13RA1). B3: no binding (tested: 150 ng IgG1 per well) (ICAM1-Fc (R&D Systems)).

B4: HW-101 chimeric rabbit-human IgG1 LA/LA/PG (antibody, V domains shown)
VH: QEQLVESGGRLVTPGTPLTLTCKASGFSLGKYDMSWVRQAPGKGLEWIGTIYAGSGSTWYASWAKGRFTISKTSTTVDLKMTSLTTEDTATYFCARDFLGVNSIWGPGTLVTISS
VL: SFVLTQPASVQVNLGQTVSLTCTADTLSRSYASWYQQKPDQAPVLLIHRDTSRPSGVPDRFSGSNSGNTATLTISGAQAGDEADYYCATSDGSGSNFHFVFGGGTQLTVTG
notes: Fc-silenced (L234A/L235A/P329G) IgG1, lambda; Alexa Fluor 647-labeled in single-step flow cytometry; Cluster C-97
B4: no binding (tested: 150 ng IgG1 per well) (PTP4A3); no binding (tested: 150 ng IgG1 per well) [1]; no binding (tested: 150 ng IgG1 per well) (SLAMF7). B4: no binding (tested: 150 ng IgG1 per well) (SELL); no binding (tested: 150 ng IgG1 per well) (HHLA2); no binding (tested: 150 ng IgG1 per well) (IL13RA1). B4: no binding (tested: 150 ng IgG1 per well) (ICAM1-Fc (R&D Systems)).

B5: HW-97 chimeric rabbit-human IgG1 LA/LA/PG (antibody, V domains shown)
VH: QKQLVESGGRLVTPGTPLTLTCTVTGIDLSSHGMSWVRQAPGKGLEWIGVIYPSGSTWYASWARGRFTISKTSTTVDLKMTSLTTEDTATHFCARGDVGGADNNIWGPGTLVTVSS
VL: SFVLTQPASVQVDLGQTVSLTCTAETLSRSYASWYQQKPGQAPVLLIYRDTSRPSGVPDRFSGSSSGNTATLTISGAQAGDEADYYCATSDGSGSSYQYVFGGGTQLTVTG
notes: Fc-silenced (L234A/L235A/P329G) IgG1, lambda; Alexa Fluor 647-labeled in single-step flow cytometry; Prototype of cluster C-97
B5: no binding (tested: 150 ng IgG1 per well) (PTP4A3); no binding (tested: 150 ng IgG1 per well) [1]; no binding (tested: 150 ng IgG1 per well) (SLAMF7). B5: no binding (tested: 150 ng IgG1 per well) (SELL); no binding (tested: 150 ng IgG1 per well) (HHLA2); no binding (tested: 150 ng IgG1 per well) (IL13RA1). B5: no binding (tested: 150 ng IgG1 per well) (ICAM1-Fc (R&D Systems)).

B6: HW-17 chimeric rabbit-human IgG1 LA/LA/PG (antibody, V domains shown)
VH: QSLGESRGRLVTPDETLTLTCTVSGIDLSSNAMSWVRQAPGEGLEWIGTINTGGRAYYASWAKGRFTISRTSTTVDLKMTSLTTEDTATYFCARERYSDGRAYDIWGPGTLVTISS
VL: SFVLTQPASVQVNLGQTVSLTCTADTLSRRYASWYQQKPGQAPVLLIYTDSNRPSGIPDRFSGSSSGNTATLTISGAQAGDEADYYCATDDGSGSIYQYVFGGGTQLTVTG
notes: Fc-silenced (L234A/L235A/P329G) IgG1, lambda; Alexa Fluor 647-labeled in single-step flow cytometry; Cluster C-1
B6: no binding (tested: 150 ng IgG1 per well) (PTP4A3); no binding (tested: 150 ng IgG1 per well) [1]; no binding (tested: 150 ng IgG1 per well) (SLAMF7). B6: no binding (tested: 150 ng IgG1 per well) (SELL); no binding (tested: 150 ng IgG1 per well) (HHLA2); no binding (tested: 150 ng IgG1 per well) (IL13RA1). B6: no binding (tested: 150 ng IgG1 per well) (ICAM1-Fc (R&D Systems)).
